Test system: MS2 coat protein
Assay: apparent KD of MS2 coat protein; designed switch direction (-1 OFF switch, 1 ON switch): -1; higher = weaker reporter binding
Outline: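 Apparent KD, taken as the median over clusters for each design, was obtained by curve-fitting normalised cluster fluorescence. Designed RNA switches had been transcribed on Illumina chips by stalled E. coli RNA polymerase and titrated with SNAP-549-labelled MS2 coat protein, doubling from 0.7 or 1.5 nM to 3 µM.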

[1] = Eterna round: R95, input ligand: microRNA oligo, concentration not stated
[2] = Eterna round: R95, input ligand: FMN 200 uM
[3] = Eterna round: R95, input ligand: none

| Sequence | apparent KD of MS2 coat protein [1] [nM] | apparent KD of MS2 coat protein (input ligand: FMN 200 uM) [nM] | apparent KD of MS2 coat protein (input ligand: none) [nM] | also measured |
| --- | --- | --- | --- | --- |
| CAGAAACAUGAGGAUCACCCAUGUGAGGAUAUGCGUACGUUGUCCGUAGGCGACGUGCGCAGAAGGCACAAAGG [Mat - Mod of JL D84] (puzzle: Exclusion 1) | 111 |  |  |  |
| GUGAAGAAGUUAGUGGCCUACAUGAGGAUCACCCAUGUGAGGGAAAUGUCGAGGCGGAGGUUGUGUGCUCGUCUGUA [JR_SV3TOV1_Sub041] (puzzle: Sensor v3, turn-off variant 1) | 27.6 |  |  | apparent KD of MS2 coat protein [2]: 25.7 nM; apparent KD of MS2 coat protein [3]: 26.4 nM |
| UUUUAACAUGAGGAUCACCCAUGUGAGGAUAUCGAAAUUUAUAUUAAUAUUAAUAAUUCGAGAAGGCACAUUUU [JMF 21] (puzzle: Exclusion 1) | 117 |  |  |  |
| GCGUAGUAUGUAGGAUAUCGGUCAGUUUCUGAUCGAGAAGGACAUGAGGAUCACCCAUGUAAAUUGCCCGCUUUGUGGGUACGC [JL ENG1 3.60] (Eterna round: R96, puzzle: Exclusion NG 1) |  | 59.3 | 22.5 | apparent KD of MS2 coat protein (input ligand: microRNA oligo, concentration not stated): 19.1 nM |
| GAUGAGGGAGUGAGGAUAUAUACCGGCUCACCGGAGUAGAAGGCACAUGAGGAUCACCCAUGUGACCUUAACCU [Eternabot (L2) Solution 92] (Eterna round: R97, puzzle: Brourd's mod of Exclusion 4) |  | 15.3 | 14.1 |  |
| CAACUGUGAGGAUAUGGUGAGUAGUGCCUGAGCGCUGCUCACCAGAAGGCACAUGAGGAUCACCCAUGUAUGAC [JL-ex4-2.02 denovo] (puzzle: Exclusion 4) | 38.3 |  |  |  |
| GUACUACAUGAGGAUCACCCAUGUCAGGAUAUGCGAAUUUCAUCAAAAGAUGAAAUUUGCAGAAGGGACAGUAC [Omei Ex1 A1] (Eterna round: R97, puzzle: Exclusion 1) |  | 35.3 | 24.1 |  |
| UUUACAAGCUAUUGAUCCCACAUGAGGAUCACCCAUGUUGCUGCCGGUGACGGUAGCAUAACAAUUGCUCGUCUUAU [JL TOV1 3.56] (Eterna round: R97, puzzle: Sensor, turn-off variant 1) |  | 660 | 797 |  |
| GUGGUACAUGAGGAUCACCCAUGUUAGGAUAUCGCGUGAGGUUUUGCUUCCGCGCGCGCGAGAAGGGACGUCUU (puzzle: Exclusion 1) | 23.2 |  |  |  |
| CUUAGACAUGAGGAUCACCCAUGUGAGGAUAUGAUGAGGAUAAGGAAGGAAGAAGGAAUCAGAAGGCACAUAUG [Mat - Mod of Hyphema D27] (puzzle: Exclusion 1) | 69.4 |  |  | apparent KD of MS2 coat protein [2]: 102 nM; apparent KD of MS2 coat protein [3]: 74.2 nM |
| UACGAACUAGGAUAUGCAAAGGGCUCGCUUUCCUUCGAUAAACUUGAGGAUCACCCAAGUAGAAGGAGUUUGUA [Mod 39 - Jieux - Exclusion 2] (Eterna round: R97, puzzle: Exclusion 2) |  | 30.2 | 11.4 |  |
| GUCAUGUUAGGAUAUCUGACAUGUGACUUCGGUCACUGUCCAGAGAAGGAACAUGAGGAUCACCCAUGUUGGAC [Ex4-3: 55] (puzzle: Exclusion 4) | 43.2 |  |  |  |
| AGUAACCGUCACGAAAGUGAUGGUUACACAAGCAUAUGUACAUGAGGAUCACCCAUGUCCUCAAUUGCUCGUCUUAU [Sensor 3 - 54] (puzzle: Sensor v3, turn-off variant 2) | 250 |  |  | apparent KD of MS2 coat protein [2]: 167 nM; apparent KD of MS2 coat protein [3]: 226 nM |
| AAAUAGCUAGAGGAUAUUGGAUAGGAUUUAAUACGAGAAGGUUAGACAUGAGGAUCACCCAUGUUGUGUUGGGA [EX6 #17] (Eterna round: R97, puzzle: Exclusion 6) |  | 51.3 | 48.5 |  |
| GAUUGACAUGAGGAUCACCCAUGUGAGGAUAUCGGCUGGACCGUGUUGGCUUGCUUUCCGAGAAGGCGCAUAGG [Exclusion 1 V50] (puzzle: Exclusion 1) | 36.9 |  |  | apparent KD of MS2 coat protein [2]: 81.7 nM; apparent KD of MS2 coat protein [3]: 45.9 nM |

— the supplement of paper PMC9170038
